Patent US20180273635A1 (Zymeworks, published 2018)
Where a chain is given by its changes, count along the chain named. Names may count otherwise. Blank lines part the entries; values can stand above or below the binder they belong to.

Tests used:
[1] = target: T1, Recombinant human HER2 (human, UniProt P04626 23-652); experiment: SPR, pre-SEC; ratio to WT v10013;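 note: SPR on Biacore T200 at 25 °C, constructs captured via anti-human Fc on CM5 chip, HER2 ECD as analyte, 1:1 Langmuir global fit, after protein A purification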
T1 construct: extracellular domain; analyte of the SPR assays; also called HER2 ECD; ECD2 of HER2

[2] = target: T1, Recombinant human HER2; experiment: SPR, variant captured on anti-human Fc, HER2 flowed, 25 C, pre-SEC;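 note: HER2 extracellular domain binding on Biacore T200, CM5 chip with amine-coupled anti-human Fc, duplicate antigen dilutions, global 1:1 Langmuir fit, measured after protein A purification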
Procedure: (§1) The affinity towards HER2 ECD of the samples was measured by SPR on a Biacore T200 as follows. Between 2000 and 4000 RU of anti-human Fc injected at concentration between 5 and 10 μg/ml was immobilized on a CM5 chip using standard amine coupling. Antigen-binding constructs were captured on the anti-human Fc (injected at concentration at 0.51 microg/mL in PBST, 1 min at 10 microl/min) at response levels ranging from 120-270 RU. […] HER2 dilutions were analyzed in duplicates. Sensograms were fit globally to a 1: 1 Langmuir binding model, using the software provided with the Biacore T200. All experiments were conducted at 25° C.
(§2) The affinity of antigen-binding constructs in OA format was determined by SPR following protein A purification. […] Antigen-binding constructs in FSA format were purified by protein A affinity and SEC prior to assessment of affinity by SPR.

[3] = target: T1, Recombinant human HER2; experiment: SPR, variant captured on anti-human Fc, HER2 flowed, 25 C, post-SEC
Procedure: as §1, §2

[4] = target: T1, Recombinant human HER2; experiment: SPR, post-SEC; ratio to WT v10013
Procedure: as §1, §2

[5] = target: T2, Recombinant human HER2 (human, UniProt P04626 23-652); experiment: SPR post-SEC (value taken over from Table 5); Ka ratio to WT v10013
T2 construct: extracellular domain; Analyte of the SPR assays; also called HER2 ECD; ECD2 of HER2
Procedure: as §1, §2

[6] = target: T2, Recombinant human HER2; experiment: calculated from the SPR Ka ratio to WT, -RTln(Ka,mut/Ka,WT), 298 K
[7] = target: T3, HER2 expressed on the surface of cells (human, UniProt P04626 23-1255); experiment: cell-based or functional assay
[8] = target: T3, HER2 expressed on the surface of cells; experiment: cell-based or functional assay; remark: listed apart in the source
[9] = target: T3, HER2 expressed on the surface of cells; experiment: flow cytometry on SKBR3 cells, n=1; B50 = concentration at 50% of Bmax
Procedure: (§3) Binding of the test antigen-binding constructs to the surface of HER2+ cells was determined by flow cytometry. Cells were washed with PBS and resuspended in DMEM at 1×10⁵ cells/100 μl. 100 μl cell suspension was added into each microcentrifuge tube, followed by 10 μl/tube of the antigen-binding constructs. The tubes were incubated for 2 hr at 4° C. on a rotator. The microcentrifuge tubes were centrifuged for 2 min 2000 RPM at room temperature and the cell pellets washed with 500 μl media. Each cell pellet was resuspended in 100 μl of fluorochrome-labelled secondary antibody diluted in media to 2 μg/sample. The samples were then incubated for lhr at 4° C. on a rotator. After incubation, the cells were centrifuged for 2 min at 2000 rpm and washed in media. The cells were resuspended in 500 μl media, filtered, transferred to a tube containing 5 μl propidium iodide (PI) and analyzed on a BD LSR II flow cytometer according to the manufacturer's instructions. The B50 of the tested antigen-binding constructs was assessed by FACS with data analysis and curve fitting performed in GraphPad Prism. The experiment was carried out once (n=1) in SKBr3 cells, and twice (n=2) in SKOV3, MCF7, and BT-474 cells.
(§4) The experiment was performed once (n=1) in each cell line.

[10] = target: T3, HER2 expressed on the surface of cells; experiment: flow cytometry on SKBR3 cells, n=1
Procedure: as §3, §4

[11] = target: T3, HER2 expressed on the surface of cells; experiment: flow cytometry on MCF7 cells (low HER2), n=1
Procedure: as §3, §4

[12] = target: T3, HER2 expressed on the surface of cells; experiment: flow cytometry on BT474 cells, n=1; B50 = concentration at 50% of Bmax
Procedure: as §3, §4

[13] = target: T3, HER2 expressed on the surface of cells; experiment: cell-based or functional assay; remark: listed apart in the source
[14] = target: T3, HER2 expressed on the surface of cells; experiment: flow cytometry on BT474 cells, n=1
Procedure: as §3, §4

[15] = target: T3, HER2 expressed on the surface of cells; experiment: cell-based or functional assay; remark: listed apart in the source
[16] = target: T3, HER2 expressed on the surface of cells; experiment: flow cytometry on MCF7 cells (low HER2), n=1; B50 = concentration at 50% of Bmax
Procedure: as §3, §4

[17] = target: T3, HER2 expressed on the surface of cells; experiment: cell-based or functional assay; remark: listed apart in the source

Ka, mut/Ka, WT [1]: 8.2
Kd [2]: 2.4 nM
Kd [3]: 3.9 nM
Ka, mut/Ka, WT [4]: 5.3
B1: variant 12502 (antibody, human IgG1, kappa)
heavy: EVQLVESGGGLVQPGGSLRLSCAASGFTFTDYTMDWVRQAPGKGLEWVADVNPNSGGSIYNQRFKGRFTLSVDRWKNTLYLQMNSLRAEDTAVYYCARNLGPSFYFDYWGQGTLVTVSSASTKGPSVFPLAPSSKSTSGGTAALGCLVKDYFPEPVTVSWNSGALTSGVHTFPAVLQSSGLYSLSSVVTVPSSSLGTQTYICNVNHKPSNTKVDKKVEPKSCDKTHTCPPCPAPELLGGPSVFLFPPKPKDTLMISRTPEVTCVVVDVSHEDPEVKFNWYVDGVEVHNAKTKPREEQYNSTYRVVSVLTVLHQDWLNGKEYKCKVSNKALPAPIEKTISKAKGQPREPQVYVYPPSRDELTKNQVSLTCLVKGFYPSDIAVEWESNGQPENNYKTTPPVLDSDGSFALVSKLTVDKSRWQQGNVFSCSVMHEALHNHYTQKSLSLSPG
light: not shown
chain: not shown
notes: OA pertuzumab variant, HC S74W (Kabat); also called v12502

Ka, mut/Ka, WT [5]: 4.5 fold
ΔΔG [6]: -0.9 kcal/mol
B2: Variant 12610 (antibody, human IgG1, kappa)
heavy: B1 heavy with T30A, W75S
light: not shown
chain: not shown
notes: OA (one-armed) format; clones 3376, 1811, 4372; also called v12610

Ka, mut/Ka, WT [1]: 4.2
Kd [2]: 4.6 nM
Kd [3]: 5.7 nM
Ka, mut/Ka, WT [4]: 3.7
B4: variant 12505 (antibody, human IgG1, kappa)
heavy: B1 heavy with W75S, K76E
light: not shown
chain: not shown
notes: OA pertuzumab variant, HC K75E (Kabat); also called v12505

Ka, mut/Ka, WT [5]: 3.7 fold
ΔΔG [6]: -0.8 kcal/mol
B5: Variant 12505 (antibody, human IgG1, kappa)
heavy: B1 heavy with W75S, K76E
light: not shown
chain: not shown
notes: OA (one-armed) format; clones 7843, 1811, 4372; also called v12505

Ka, mut/Ka, WT [1]: 30.6
Kd [2]: 0.64 nM
Kd [3]: 0.68 nM
Ka, mut/Ka, WT [4]: 30.6
B6: variant 12506 (antibody, human IgG1, kappa)
heavy: B1 heavy with W75S, K76W
light: not shown
chain: not shown
notes: OA pertuzumab variant, HC K75W (Kabat); also called v12506

Ka, mut/Ka, WT [5]: 2.1 fold
ΔΔG [6]: -0.4 kcal/mol
B8: Variant 12491 (antibody, human IgG1, kappa)
heavy: B1 heavy with G57F, W75S
light: not shown
chain: not shown
notes: OA (one-armed) format; clones 7826, 1811, 4372; also called v12491

Ka, mut/Ka, WT [5]: 4.5 fold
ΔΔG [6]: -0.9 kcal/mol
B9: Variant 12514 (antibody, human IgG1, kappa)
heavy: B1 heavy with W75S, S103W
light: not shown
chain: not shown
notes: OA (one-armed) format; clones 7852, 1811, 4372; also called v12514

Ka, mut/Ka, WT [5]: 30.6 fold
ΔΔG [6]: -2 kcal/mol
B12: Variant 12506 (antibody, human IgG1, kappa)
heavy: B1 heavy with W75S, K76W
light: not shown
chain: not shown
notes: OA (one-armed) format; clones 7844, 1811, 4372; also called v12506

Ka, mut/Ka, WT [1]: 3.6
Kd [2]: 5.4 nM
Kd [3]: 6.6 nM
Ka, mut/Ka, WT [4]: 3.1
B13: variant 12520 (antibody, human IgG1, kappa)
heavy: B1 heavy with T30R, G57Y, W75S
light: not shown
chain: not shown
notes: also called v12520

Ka, mut/Ka, WT [1]: 1.3
Kd [2]: 15 nM
Kd [3]: 25 nM
Ka, mut/Ka, WT [4]: 0.8
B14: variant 12503 (antibody, human IgG1, kappa)
heavy: B1 heavy with W75H
light: not shown
chain: not shown
notes: OA pertuzumab variant, HC S74H (Kabat); also called v12503

Ka, mut/Ka, WT [1]: 1.6
Kd [2]: 12 nM
Kd [3]: 11 nM
Ka, mut/Ka, WT [4]: 1.9
B15: variant 12540 (antibody, human IgG1, kappa)
heavy: B1 heavy with W75S
light: not shown
chain: not shown
notes: OA pertuzumab variant, LC Y96V (Kabat); also called v12540

Ka, mut/Ka, WT [5]: 2.7 fold
ΔΔG [6]: -0.6 kcal/mol
B18: Variant 12490 (antibody, human IgG1, kappa)
heavy: B1 heavy with G57Y, W75S
light: not shown
chain: not shown
notes: OA (one-armed) format; clones 7825, 1811, 4372; also called v12490

Ka, mut/Ka, WT [1]: 1.1
Kd [2]: 18 nM
Kd [3]: 27 nM
Ka, mut/Ka, WT [4]: 0.8
B19: variant 12504 (antibody, human IgG1, kappa)
heavy: B1 heavy with W75A
light: not shown
chain: not shown
notes: OA pertuzumab variant, HC S74A (Kabat); also called v12504

Ka, mut/Ka, WT [1]: 4.2
Kd [2]: 4.7 nM
Kd [3]: 4.4 nM
Ka, mut/Ka, WT [4]: 4.8
B20: variant 12538 (antibody, human IgG1, kappa)
heavy: B1 heavy with W75S
light: not shown
chain: not shown
notes: OA pertuzumab variant, LC Y49W (Kabat); also called v12538

The remaining lines, values behind:

B3: variant 12536 (antibody, human IgG1, kappa)
heavy: B1 heavy with W75S
light: not shown
chain: not shown
notes: OA pertuzumab variant, LC Y96G (Kabat); also called v12536
Ka, mut/Ka, WT [1]: 4.1
Kd [2]: 4.8 nM
Kd [3]: 5.2 nM
Ka, mut/Ka, WT [4]: 4

B7: Variant 12538 (antibody, human IgG1, kappa)
heavy: B1 heavy with W75S
light: not shown
chain: not shown
notes: OA (one-armed) format; clones 3057, 7919, 4372; also called v12538
Ka, mut/Ka, WT [5]: 4.8 fold
ΔΔG [6]: -0.9 kcal/mol

B10: Variant 12502 (antibody, human IgG1, kappa)
heavy: B1 heavy
light: not shown
chain: not shown
notes: OA (one-armed) format; clones 7840, 1811, 4372; also called v12502
Ka, mut/Ka, WT [5]: 5.3 fold
ΔΔG [6]: -1 kcal/mol

B11: Variant 12482 (antibody, human IgG1, kappa)
heavy: B1 heavy with T30F, W75S
light: not shown
chain: not shown
notes: OA (one-armed) format; clones 7817, 1811, 4372; also called v12482
Ka, mut/Ka, WT [5]: 2.9 fold
ΔΔG [6]: -0.6 kcal/mol

B16: Variant 12478 (antibody, human IgG1, kappa)
heavy: B1 heavy with T30Y, W75S
light: not shown
chain: not shown
notes: OA (one-armed) format; clones 7813, 1811, 4372; also called v12478
Ka, mut/Ka, WT [5]: 3.6 fold
ΔΔG [6]: -0.8 kcal/mol

B17: Variant 12536 (antibody, human IgG1, kappa)
heavy: B1 heavy with W75S
light: not shown
chain: not shown
notes: OA (one-armed) format; clones 3057, 7917, 4372; also called v12536
Ka, mut/Ka, WT [5]: 4 fold
ΔΔG [6]: -0.8 kcal/mol

B21: Variant 12479 (antibody, human IgG1, kappa)
heavy: B1 heavy with T30N, W75S
light: not shown
chain: not shown
notes: OA (one-armed) format; clones 7814, 1811, 4372; also called v12479
Ka, mut/Ka, WT [5]: 4.7 fold
ΔΔG [6]: -0.9 kcal/mol

B22: variant 12514 (antibody, human IgG1, kappa)
heavy: B1 heavy with W75S, S103W
light: not shown
chain: not shown
notes: OA pertuzumab variant, HC S99W (Kabat); also called v12514
Ka, mut/Ka, WT [1]: 5.8
Kd [2]: 3.4 nM
Kd [3]: 4.6 nM
Ka, mut/Ka, WT [4]: 4.5

B23: Variant 12480 (antibody, human IgG1, kappa)
heavy: B1 heavy with T30Q, W75S
light: not shown
chain: not shown
notes: OA (one-armed) format; clones 7815, 1811, 4372; also called v12480
Ka, mut/Ka, WT [5]: 4.7 fold
ΔΔG [6]: -0.9 kcal/mol

B24: Variant 14019 (antibody, name in Kabat numbering, V domains shown)
VH: EVQLVESGGGLVQPGGSLRLSCAASGFTFQDYTMDWVRQAPGKGLEWVGDVNPNSGGSIYNQRFKGRFTFSVDRSWNTLYLQMNSLRAEDTAVYYCARNLGPSFYFDYWGQGTLVTVSS
VL: DIQMTQSPSSLSASVGDRVTITCKASQDVSIGVAWYQQKPGKAPKLLIYSASYRYTGVPSRFSGSGSGTDFTLTISSLQPEDFATYYCQQYYIYPYTFGQGTKVEIKR
notes: also called v14019
growth inhibition IC50 (potency), SKBR3 cells [7]: 0.25 nM
growth inhibition span (percentage of cells killed), SKBR3 cells [7]: 25%
growth inhibition span ratio to WT, SKBR3 cells [7]: 1.5 fold
growth inhibition IC50 (potency), NCI-N87 cells, 5 days [8]: 4.1 nM
growth inhibition span (percentage of cells killed), NCI-N87 cells [8]: 37%
increase in efficacy with respect to the WT, NCI-N87 cells [8]: 2.2 fold
increase in potency with respect to the WT, NCI-N87 cells [8]: 2.2 fold
B50 [9]: 14 nM
Bmax [10]: 29000 MFI
Bmax [11]: 670 MFI
B50 [12]: 2.9 nM
growth inhibition IC50 (potency), BT474 cells + EGF [13]: 1.1 nM
growth inhibition span (percentage of cells killed), BT474 cells + EGF [13]: 33%
growth inhibition span ratio to WT, BT474 cells + EGF [13]: 1.8 fold
Bmax [14]: 23000 MFI
growth inhibition IC50 (potency), BT474 cells [15]: 0.51 nM
growth inhibition span (percentage of cells killed), BT474 cells [15]: 32%
growth inhibition span ratio to WT, BT474 cells [15]: 3 fold
B50 [16]: 1.4 nM
growth inhibition span (percentage of cells killed), MDA-MB-175 cells [17]: 85%

B25: Variant 14018 (antibody, name in Kabat numbering, V domains shown)
VH: B24 VH with Q30T
VL: B24 VL with Y49W
notes: also called v14018
growth inhibition IC50 (potency), SKBR3 cells [7]: 0.28 nM
growth inhibition span (percentage of cells killed), SKBR3 cells [7]: 29%
growth inhibition span ratio to WT, SKBR3 cells [7]: 1.7 fold
growth inhibition IC50 (potency), NCI-N87 cells, 5 days [8]: 2.1 nM
growth inhibition span (percentage of cells killed), NCI-N87 cells [8]: 32%
increase in efficacy with respect to the WT, NCI-N87 cells [8]: 1.9 fold
increase in potency with respect to the WT, NCI-N87 cells [8]: 4.3 fold
B50 [9]: 8.4 nM
Bmax [10]: 32000 MFI
Bmax [11]: 680 MFI
B50 [12]: 2.4 nM
growth inhibition IC50 (potency), BT474 cells + EGF [13]: 1.7 nM
growth inhibition span (percentage of cells killed), BT474 cells + EGF [13]: 33%
growth inhibition span ratio to WT, BT474 cells + EGF [13]: 1.8 fold
Bmax [14]: 22000 MFI
growth inhibition IC50 (potency), BT474 cells [15]: 0.66 nM
growth inhibition span (percentage of cells killed), BT474 cells [15]: 30%
growth inhibition span ratio to WT, BT474 cells [15]: 2.8 fold
B50 [16]: 0.9 nM
growth inhibition span (percentage of cells killed), MDA-MB-175 cells [17]: 85%
